Key:
[1] = molecular target: T1, HA of A/PuertoRico/8/1934 H1N1 (Influenza A virus A/PuertoRico/8/1934 …, UniProt P03452 18-565); experiment: immunofluorescence on virus-infected MDCK cells
T1 construct: whole, on cells; also called PR8

[2] = molecular target: T2, HA of H4 (A/duck/Czech/1956)/PR8 H4N1 (PR8-RS) (Influenza A virus A/duck/Czech/1956 (H4), UniProt P19696 17-564); experiment: immunofluorescence on virus-infected MDCK cells, antibody 40μg/mL
T2 construct: whole, on cells

B1: AF4H1K1 (antibody, V domains shown)
VH: QVQLVESGGGVVQPGTSLRLSCEASGFTSSAYAMHWVRQAPGKGLEWVAVITFDGGYQYYADSVKGRFTISRDISRNTLHLHMNSLRAEDTAVYYCARDPLTKLLPFDWVSGGYFDYWGQGTLVTVSS
VL: not shown
notes: also called AF4H1K1 IgG; AF4H1K1IgG
binding result [1]: no binding (tested: 40μg/mL) | binding result [2]: binds
